Results published in PMC12494784 (Nature Communications, 2025).
Where a chain is given by its changes, count along the chain named. Names may count otherwise.

B1: truncated Xenopus laevis KCNQ1 (residues 67-610), wild type (domain or fragment)
chain: ATDPPRPTINLDPRVSIYSGRRPLLSRTNIQGRVYNFLERPTGWKCFVYHFTVFLIVLICLIFSVLSTIQQYNNLATETLFWMEIVLVVFFGAEYVVRLWSAGCRSKYVGVWGRLRFARKPISVIDLIVVVASVIVLCVGSNGQVFATSAIRGIRFLQILRMLHVDRQGGTWRLLGSVVFIHRQELITTLYIGFLGLIFSSYFVYLAEKDAIDSSGEYQFGSYADALWWGVVTVTTIGYGDKVPQTWIGKTIASCFSVFAISFFALPAGILGSGFALKVQQKQRQKHFNRQIPAAASLIQTAWRCYAAENPDSATWKIYIRKQSRNHHLMSPSPKPKKSAMVKKKKIRTERDEGSTDKMLNIPHITYDHVADDRKNDGYSVESYENTVRKPFGFLDPSTGPFIRTSSFTDDLDMEGDTLLTPITHISELKEHHRAAIKVIRRMQYFVAKKKFQQARKPYDVRDVIEQYSQGHLNLMVRIKELQRRLDQSLGKPSLFLSVSDKVKDKGINTIGSRLNRVEDKVTQMDHKLNLITDMLHHLLTNQQ
B2: Xenopus KCNQ1 E150R/R221E (residues 67-610) (domain or fragment)
chain: B1 chain with E84R, R155E

Legend:
[1] = biological target: calmodulin (UniProt P0DP23); experiment: cryo-EM structure
[2] = biological target: the molecule itself; experiment: cryo-EM structure

Row | Binder | binding result [1] | stoichiometry N [2]
1 | B1 | binds | 4
2 | B2 | binds | –
